Assay [1] addresses T1, Syntaxin-5 (STX5), endogenous, as precipitated by the anti-STX5 antibody (human (endogenous in HEK293T), UniProt Q13190 1-355).
T1 sequence (looked up): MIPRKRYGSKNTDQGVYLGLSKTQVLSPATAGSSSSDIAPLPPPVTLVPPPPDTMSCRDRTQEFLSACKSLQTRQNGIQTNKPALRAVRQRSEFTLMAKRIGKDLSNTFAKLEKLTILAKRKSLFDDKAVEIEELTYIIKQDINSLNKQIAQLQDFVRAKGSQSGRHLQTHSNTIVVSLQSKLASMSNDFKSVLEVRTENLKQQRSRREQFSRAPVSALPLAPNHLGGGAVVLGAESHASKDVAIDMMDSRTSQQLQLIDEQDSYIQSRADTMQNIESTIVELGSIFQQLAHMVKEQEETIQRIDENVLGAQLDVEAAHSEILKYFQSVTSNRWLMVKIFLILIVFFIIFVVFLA
The assay can be described thus: co-IP.

Assay [2] has as its target T2, SNAP29-His6 (SNAP29 in pET23a) (UniProt O95721 1-258).
T2 sequence (looked up): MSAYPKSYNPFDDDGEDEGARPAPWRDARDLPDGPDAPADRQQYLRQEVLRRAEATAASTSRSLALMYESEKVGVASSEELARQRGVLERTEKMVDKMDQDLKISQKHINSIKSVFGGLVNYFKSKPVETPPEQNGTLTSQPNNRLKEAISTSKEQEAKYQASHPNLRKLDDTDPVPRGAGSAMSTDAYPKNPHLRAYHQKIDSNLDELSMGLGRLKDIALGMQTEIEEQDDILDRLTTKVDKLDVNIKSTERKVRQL
The assay can be described thus: pull-down.

The record followed here is article PMC10330844 (Traffic (Copenhagen, Denmark), 2023).

B1: VAMP7, endogenous (natural protein, human (endogenous in HEK293T), UniProt P51809 1-220, looked up)
chain: MAILFAVVARGTTILAKHAWCGGNFLEVTEQILAKIPSENNKLTYSHGNYLFHYICQDRIVYLCITDDDFERSRAFNFLNEIKKRFQTTYGSRAQTALPYAMNSEFSSVLAAQLKHHSENKGLDKVMETQAQVDELKGIMVRNIDLVAQRGERLELLIDKTENLVDSSVTFKTTSRNLARAMCMKNLKLTIIIIIVSIVFIYIIVSPLCGGFTWPSCVKK
On to B1, for which the “percent of the cellular protein present in STX5 complexes (GS28 KO cells)” value (shortened to “percent of the cellular protein present”) in assay [1] was less than 25%.

B2: VTI1B, endogenous (natural protein, human (endogenous in HEK293T), UniProt Q9UEU0 1-232, looked up)
chain: MASSAASSEHFEKLHEIFRGLHEDLQGVPERLLGTAGTEEKKKLIRDFDEKQQEANETLAEMEEELRYAPLSFRNPMMSKLRNYRKDLAKLHREVRSTPLTATPGGRGDMKYGIYAVENEHMNRLQSQRAMLLQGTESLNRATQSIERSHRIATETDQIGSEIIEELGEQRDQLERTKSRLVNTSENLSKSRKILRSMSRKVTTNKLLLSIIILLELAILGGLVYYKFFRSH
In the case of B2, the “percent of the cellular protein present” value in assay [1] was less than 25%.

B3: GST-STX5 (rSTX5 (55-333) in pGEX-KG) (domain or fragment, UniProt Q08851 55-333, looked up)
chain: MSCRDRTQEFLSACKSLQSRQNGIQTNKPALHATRQCSEFTLMARRIGKDLSNTFAKLEKLTILAKRKSLFDDKAVEIEELTYIIKQDINSLNKQIAQLQDFVRAKGSQSGRHLQTHSNTIVVSLQSKLASMSNDFKSVLEVRTENLKQQRNRREQFSRAPVSALPLAPNNLGGGPIVLGGESRASRDVAIDMMDPRTSQQLQLIDEQDSYIQSRADTMQNIESTIVELGSIFQQLAHMVKEQEETIQRIDENVLGAQLDVEAAHSEILKYFQSVTSNR
On to B3, for which, in assay [2], the “stoichiometry N” value is 1.

B4: SNAP29, endogenous (natural protein, human (endogenous in HEK293T), UniProt O95721 1-258, looked up)
chain: MSAYPKSYNPFDDDGEDEGARPAPWRDARDLPDGPDAPADRQQYLRQEVLRRAEATAASTSRSLALMYESEKVGVASSEELARQRGVLERTEKMVDKMDQDLKISQKHINSIKSVFGGLVNYFKSKPVETPPEQNGTLTSQPNNRLKEAISTSKEQEAKYQASHPNLRKLDDTDPVPRGAGSAMSTDAYPKNPHLRAYHQKIDSNLDELSMGLGRLKDIALGMQTEIEEQDDILDRLTTKVDKLDVNIKSTERKVRQL
On to B4, for which the “percent of the cellular protein present” value in assay [1] is approximately 35%.
